One substance from paper PMC8439434 can be followed below.

The target of test [1] is HLA-C*07:01 purified from the Steinlin EBV transformed homozygous cell line (human (endogenous in the Steinlin EBV transformed cell line)). As to the kind of experiment: radioligand binding; classical MHC-peptide inhibition of binding assay specific for HLA-C*07:01: purified MHC from the Steinlin line, radiolabeled 3424.0028 as probe, test peptides as inhibitors, anti-HLA Class I B123.2 mAb.

Test [2] has as its target HLA-B*08:01 (human (endogenous in the Steinlin EBV transformed cell line)). As to the kind of experiment: radioligand binding; previously validated B*08:01 inhibition of binding assay (ref. 10); radiolabeled probe not named.

In test [1], “peptide 3424.0028 (…, DNA replication licensing factor MCM5 289-297)” showed an affinity (from inhibition of binding) of 0.21 nM. Moreover, the fold lower affinity than in the C*07:01 assay in test [2] was determined as 1500 fold.
